From publication PMC5042879 (The Biochemical journal, 2016)

T1: (His)6-tagged erythrocyte cytoplasmic domain of band 3 (cdb3), wild type (UniProt P02730 1-403)
T1 sequence (looked up): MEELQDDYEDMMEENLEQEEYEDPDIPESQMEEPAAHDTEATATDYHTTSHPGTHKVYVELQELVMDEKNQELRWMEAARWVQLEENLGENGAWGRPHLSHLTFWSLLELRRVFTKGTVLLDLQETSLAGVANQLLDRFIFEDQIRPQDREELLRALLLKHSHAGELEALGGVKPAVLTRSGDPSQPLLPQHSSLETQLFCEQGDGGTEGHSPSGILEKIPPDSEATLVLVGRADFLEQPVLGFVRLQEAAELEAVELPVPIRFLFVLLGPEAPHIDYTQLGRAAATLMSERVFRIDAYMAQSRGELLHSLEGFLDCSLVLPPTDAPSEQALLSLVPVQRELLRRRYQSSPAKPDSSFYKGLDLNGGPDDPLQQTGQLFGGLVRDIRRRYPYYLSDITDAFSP

B1: (His)6-tagged kidney cytoplasmic domain of band 3 (kidney cdb3) (domain or fragment, UniProt P02730-2 1-338, looked up)
chain: MDEKNQELRWMEAARWVQLEENLGENGAWGRPHLSHLTFWSLLELRRVFTKGTVLLDLQETSLAGVANQLLDRFIFEDQIRPQDREELLRALLLKHSHAGELEALGGVKPAVLTRSGDPSQPLLPQHSSLETQLFCEQGDGGTEGHSPSGILEKIPPDSEATLVLVGRADFLEQPVLGFVRLQEAAELEAVELPVPIRFLFVLLGPEAPHIDYTQLGRAAATLMSERVFRIDAYMAQSRGELLHSLEGFLDCSLVLPPTDAPSEQALLSLVPVQRELLRRRYQSSPAKPDSSFYKGLDLNGGPDDPLQQTGQLFGGLVRDIRRRYPYYLSDITDAFSP
B2: GST-β-adducin tail (amino acids 335–726) (domain or fragment, UniProt P35612 335-726, looked up)
chain: EKHRPHEVGSVQWAGSTFGPMQKSRLGEHEFEALMRMLDNLGYRTGYTYRHPFVQEKTKHKSEVEIPATVTAFVFEEDGAPVPALRQHAQKQQKEKTRWLNTPNTYLRVNVADEVQRSMGSPRPKTTWMKADEVEKSSSGMPIRIENPNQFVPLYTDPQEVLEMRNKIREQNRQDVKSAGPQSQLLASVIAEKSRSPSTESQLMSKGDEDTKDDSEETVPNPFSQLTDQELEEYKKEVERKKLELDGEKETAPEEPGSPAKSAPASPVQSPAKEAETKSPLVSPSKSLEEGTKKTETSKAATTEPETTQPEGVVVNGREEEQTAEEILSKGLSQMTTSADTDVDTSKDKTESVTSGPMSPEGSPSKSPSKKKKKFRTPSFLKKSKKKEKVES

What was measured:
[1] = molecular target: B2; assay: pull-down
[2] = molecular target: T1, (His)6-tagged erythrocyte cytoplasmic …; assay: pull-down

Row | Binder | Kd [1] | Kd [2]
1 | B1 | 0.28 µM | 
2 | B2 |  | 0.26 µM
